The record followed here is patent publication US20210196796A1 (SYNTHEKINE, published 2021).

Positions count from the first letter of the chain named. In names and notes the source's numbering stands.

T1: orthogonal hCD122 receptor (hoRb), hCD122 with H133D and Y134F (human, UniProt P14784 27-550)
T1 sequence: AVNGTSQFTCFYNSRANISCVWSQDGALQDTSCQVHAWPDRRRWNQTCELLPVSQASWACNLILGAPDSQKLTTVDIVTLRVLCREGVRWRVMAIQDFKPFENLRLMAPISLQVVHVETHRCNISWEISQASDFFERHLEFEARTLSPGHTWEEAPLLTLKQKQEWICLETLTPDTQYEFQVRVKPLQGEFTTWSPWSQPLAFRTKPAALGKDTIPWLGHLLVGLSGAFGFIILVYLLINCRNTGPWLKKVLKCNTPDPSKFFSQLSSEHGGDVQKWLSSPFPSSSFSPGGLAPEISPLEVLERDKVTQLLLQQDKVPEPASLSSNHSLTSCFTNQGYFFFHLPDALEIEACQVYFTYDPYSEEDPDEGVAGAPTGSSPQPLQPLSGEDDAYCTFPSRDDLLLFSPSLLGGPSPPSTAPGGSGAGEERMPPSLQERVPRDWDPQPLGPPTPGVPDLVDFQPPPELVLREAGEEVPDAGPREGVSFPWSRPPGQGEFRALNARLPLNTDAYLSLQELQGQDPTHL

B1: ΔQ13, SQVLKA (ligand)
chain: APTSSSTKKTQLLSQLLVLLKAILNGINNYKNPKLTRMLTFKFYMPKKATELKHLQCLEEELKPLEEVLNLAQSKNFHLRPRDLISNINVIVLELKGSETTFMCEYADETATIVEFLNRWITFCQSIISTLT
B2: ΔG27, SQVLKA (ligand)
chain: APTSSSTKKTQLQLSQLLVLLKAILNINNYKNPKLTRMLTFKFYMPKKATELKHLQCLEEELKPLEEVLNLAQSKNFHLRPRDLISNINVIVLELKGSETTFMCEYADETATIVEFLNRWITFCQSIISTLT
B3: SQVLKS (ligand)
chain: APTSSSTKKTQLQLSQLLVLLKSILNGINNYKNPKLTRMLTFKFYMPKKATELKHLQCLEEELKPLEEVLNLAQSKNFHLRPRDLISNINVIVLELKGSETTFMCEYADETATIVEFLNRWITFCQSIISTLT
B4: SQVLKL (ligand)
chain: B3 chain with S23L
B5: G27K, SQVLKA (ligand)
chain: B3 chain with S23A, G27K
B6: R38G, SQVLKA (ligand)
chain: B3 chain with S23A, R38G
B7: G27S, SQVLKA (ligand)
chain: B3 chain with S23A, G27S
B8: SQVLKV (ligand)
chain: B3 chain with S23V
B9: SQVLKT (ligand)
chain: B3 chain with S23T
B10: R38W, SQVLKA (ligand)
chain: B3 chain with S23A, R38W
B11: M39L, SQVLKA (ligand)
chain: B3 chain with S23A, M39L
For Relative Proliferation Fold Change 3F8 1:10 in this document: reference of the scale not given here.
For Relative Proliferation Fold Change 3F8 1:2 in this document: reference of the scale not given here.
For Relative Proliferation Fold Change 3F8 1:50 in this document: reference of the scale not given here.
For Relative Proliferation Fold Change NKL 1:10 in this document: reference of the scale not given here.
For Relative Proliferation Fold Change NKL 1:2 in this document: reference of the scale not given here.
For Relative Proliferation Fold Change NKL 1:50 in this document: reference of the scale not given here.

In the first assay the target is T1, orthogonal hCD122 receptor (hoRb), …. The assay is described as follows: cell-based or functional assay.
Consider B1, for which the “NKL Ortho Proliferation Signal 1:2” value was 26700, the “NKL Ortho Proliferation Signal 1:10” value was found to be 20700, the “NKL Ortho Proliferation Signal 1:50” value came out at 11800 and the “Relative Proliferation Fold Change NKL 1:2” value was 2.06 fold. For the same molecule, the “Relative Proliferation Fold Change NKL 1:10” value is 1.39 fold and the “Relative Proliferation Fold Change NKL 1:50” value came to 0.79 fold.
In the case of B2, the “NKL Ortho Proliferation Signal 1:2” value was 46600, the “NKL Ortho Proliferation Signal 1:10” value stood at 31400, the “NKL Ortho Proliferation Signal 1:50” value is 14600 and the “Relative Proliferation Fold Change NKL 1:2” value was determined as 3.29 fold. Further, the “Relative Proliferation Fold Change NKL 1:10” value amounted to 2.05 fold and the “Relative Proliferation Fold Change NKL 1:50” value came out at 1.04 fold.
Take B3: the “NKL Ortho Proliferation Signal 1:2” value is 56200, the “NKL Ortho Proliferation Signal 1:10” value was 59400, the “NKL Ortho Proliferation Signal 1:50” value is 29000 and the “Relative Proliferation Fold Change NKL 1:2” value turned out to be 4.79 fold. Besides, the “Relative Proliferation Fold Change NKL 1:10” value was 3.99 fold and the “Relative Proliferation Fold Change NKL 1:50” value was found to be 2.11 fold.
For B4, the “NKL Ortho Proliferation Signal 1:2” value was 59700, the “NKL Ortho Proliferation Signal 1:10” value is 67100, the “NKL Ortho Proliferation Signal 1:50” value turned out to be 32700 and the “Relative Proliferation Fold Change NKL 1:2” value amounted to 4.69 fold. Moreover, the “Relative Proliferation Fold Change NKL 1:10” value is 4.38 fold and the “Relative Proliferation Fold Change NKL 1:50” value came out at 2.26 fold.
Regarding B5, the “NKL Ortho Proliferation Signal 1:2” value was determined as 36300, the “NKL Ortho Proliferation Signal 1:10” value was determined as 30600, the “NKL Ortho Proliferation Signal 1:50” value came out at 15200 and the “Relative Proliferation Fold Change NKL 1:2” value came out at 2.93 fold. The “Relative Proliferation Fold Change NKL 1:10” value is 1.94 fold and the “Relative Proliferation Fold Change NKL 1:50” value was determined as 1.03 fold.
B6: the “NKL Ortho Proliferation Signal 1:2” value turned out to be 20100, the “NKL Ortho Proliferation Signal 1:10” value was 18100, the “NKL Ortho Proliferation Signal 1:50” value is 9740 and the “Relative Proliferation Fold Change NKL 1:2” value came out at 1.78 fold. Further, the “Relative Proliferation Fold Change NKL 1:10” value stood at 1.19 fold and the “Relative Proliferation Fold Change NKL 1:50” value turned out to be 0.67 fold.
For the molecule B7, the “NKL Ortho Proliferation Signal 1:2” value is 48900, the “NKL Ortho Proliferation Signal 1:10” value came out at 41000, the “NKL Ortho Proliferation Signal 1:50” value was found to be 20700 and the “Relative Proliferation Fold Change NKL 1:2” value stood at 4.21 fold. For the same molecule, the “Relative Proliferation Fold Change NKL 1:10” value came to 2.94 fold and the “Relative Proliferation Fold Change NKL 1:50” value turned out to be 1.53 fold.
Take B8: the “NKL Ortho Proliferation Signal 1:2” value turned out to be 63400, the “NKL Ortho Proliferation Signal 1:10” value amounted to 66100, the “NKL Ortho Proliferation Signal 1:50” value was determined as 29900 and the “Relative Proliferation Fold Change NKL 1:2” value amounted to 4.61 fold. For the same molecule, the “Relative Proliferation Fold Change NKL 1:10” value came to 4.15 fold and the “Relative Proliferation Fold Change NKL 1:50” value was found to be 2 fold.
Consider B9, for which the “NKL Ortho Proliferation Signal 1:2” value amounted to 61400, the “NKL Ortho Proliferation Signal 1:10” value worked out at 63400, the “NKL Ortho Proliferation Signal 1:50” value is 33400 and the “Relative Proliferation Fold Change NKL 1:2” value was 4.68 fold. For the same molecule, the “Relative Proliferation Fold Change NKL 1:10” value turned out to be 4.52 fold and the “Relative Proliferation Fold Change NKL 1:50” value amounted to 2.5 fold.
For the molecule B10, the “NKL Ortho Proliferation Signal 1:2” value was 36700, the “NKL Ortho Proliferation Signal 1:10” value worked out at 23800, the “NKL Ortho Proliferation Signal 1:50” value is 11500 and the “Relative Proliferation Fold Change NKL 1:2” value stood at 2.74 fold. In addition, the “Relative Proliferation Fold Change NKL 1:10” value is 1.51 fold and the “Relative Proliferation Fold Change NKL 1:50” value is 0.77 fold.
On to B11, for which the “NKL Ortho Proliferation Signal 1:2” value was 57600, the “NKL Ortho Proliferation Signal 1:10” value amounted to 44100, the “NKL Ortho Proliferation Signal 1:50” value was 21800 and the “Relative Proliferation Fold Change NKL 1:2” value amounted to 4.47 fold. The “Relative Proliferation Fold Change NKL 1:10” value amounted to 2.84 fold and the “Relative Proliferation Fold Change NKL 1:50” value was 1.49 fold.

For a further assay the target is unchanged. The assay is described as follows: cell-based or functional assay. This is another data set of the same source.
Take B1: the “3F8 Ortho Proliferation Signal 1:2” value was 37600 cts/min, the “3F8 Ortho Proliferation Signal 1:10” value turned out to be 26100 cts/min, the “3F8 Ortho Proliferation Signal 1:50” value is 12400 cts/min and the “Relative Proliferation Fold Change 3F8 1:2” value was found to be 102 fold. The “Relative Proliferation Fold Change 3F8 1:10” value came to 23.7 fold and the “Relative Proliferation Fold Change 3F8 1:50” value was 7.63 fold.
As for B2, the “3F8 Ortho Proliferation Signal 1:2” value worked out at 28400 cts/min, the “3F8 Ortho Proliferation Signal 1:10” value amounted to 21900 cts/min, the “3F8 Ortho Proliferation Signal 1:50” value is 6730 cts/min and the “Relative Proliferation Fold Change 3F8 1:2” value turned out to be 105 fold. Besides, the “Relative Proliferation Fold Change 3F8 1:10” value is 30.4 fold and the “Relative Proliferation Fold Change 3F8 1:50” value is 10.2 fold.
As for B3, the “3F8 Ortho Proliferation Signal 1:2” value stood at 43800 cts/min, the “3F8 Ortho Proliferation Signal 1:10” value was determined as 55500 cts/min, the “3F8 Ortho Proliferation Signal 1:50” value came out at 26600 cts/min and the “Relative Proliferation Fold Change 3F8 1:2” value amounted to 90.8 fold. For the same molecule, the “Relative Proliferation Fold Change 3F8 1:10” value came to 58.3 fold and the “Relative Proliferation Fold Change 3F8 1:50” value came out at 24.2 fold.
B4: the “3F8 Ortho Proliferation Signal 1:2” value came to 40200 cts/min, the “3F8 Ortho Proliferation Signal 1:10” value was determined as 37000 cts/min, the “3F8 Ortho Proliferation Signal 1:50” value came out at 8930 cts/min and the “Relative Proliferation Fold Change 3F8 1:2” value was 43 fold. Moreover, the “Relative Proliferation Fold Change 3F8 1:10” value is 15.3 fold and the “Relative Proliferation Fold Change 3F8 1:50” value is 5.43 fold.
For B5, the “3F8 Ortho Proliferation Signal 1:2” value turned out to be 37800 cts/min, the “3F8 Ortho Proliferation Signal 1:10” value was 23700 cts/min, the “3F8 Ortho Proliferation Signal 1:50” value amounted to 10300 cts/min and the “Relative Proliferation Fold Change 3F8 1:2” value stood at 170 fold. Moreover, the “Relative Proliferation Fold Change 3F8 1:10” value was found to be 47.9 fold and the “Relative Proliferation Fold Change 3F8 1:50” value worked out at 7.82 fold.
With B6, the “3F8 Ortho Proliferation Signal 1:2” value was determined as 27200 cts/min, the “3F8 Ortho Proliferation Signal 1:10” value came out at 32100 cts/min, the “3F8 Ortho Proliferation Signal 1:50” value worked out at 14200 cts/min and the “Relative Proliferation Fold Change 3F8 1:2” value is 47.5 fold. For the same molecule, the “Relative Proliferation Fold Change 3F8 1:10” value turned out to be 21.6 fold and the “Relative Proliferation Fold Change 3F8 1:50” value was 8.42 fold.
As for B7, the “3F8 Ortho Proliferation Signal 1:2” value came out at 40200 cts/min, the “3F8 Ortho Proliferation Signal 1:10” value is 34700 cts/min, the “3F8 Ortho Proliferation Signal 1:50” value was found to be 15200 cts/min and the “Relative Proliferation Fold Change 3F8 1:2” value is 94 fold. Moreover, the “Relative Proliferation Fold Change 3F8 1:10” value turned out to be 33 fold and the “Relative Proliferation Fold Change 3F8 1:50” value is 24.6 fold.
For the molecule B8, the “3F8 Ortho Proliferation Signal 1:2” value was determined as 45300 cts/min, the “3F8 Ortho Proliferation Signal 1:10” value was determined as 53000 cts/min, the “3F8 Ortho Proliferation Signal 1:50” value was found to be 21000 cts/min and the “Relative Proliferation Fold Change 3F8 1:2” value worked out at 36.1 fold. For the same molecule, the “Relative Proliferation Fold Change 3F8 1:10” value is 29.1 fold and the “Relative Proliferation Fold Change 3F8 1:50” value is 20.8 fold.
Consider B9, for which the “3F8 Ortho Proliferation Signal 1:2” value amounted to 46400 cts/min, the “3F8 Ortho Proliferation Signal 1:10” value turned out to be 54400 cts/min, the “3F8 Ortho Proliferation Signal 1:50” value came out at 28500 cts/min and the “Relative Proliferation Fold Change 3F8 1:2” value came to 22.9 fold. Further, the “Relative Proliferation Fold Change 3F8 1:10” value is 54.9 fold and the “Relative Proliferation Fold Change 3F8 1:50” value amounted to 37.8 fold.
In the case of B10, the “3F8 Ortho Proliferation Signal 1:2” value was 40400 cts/min, the “3F8 Ortho Proliferation Signal 1:10” value was found to be 41100 cts/min, the “3F8 Ortho Proliferation Signal 1:50” value was 24200 cts/min and the “Relative Proliferation Fold Change 3F8 1:2” value worked out at 94.4 fold. Also, the “Relative Proliferation Fold Change 3F8 1:10” value was 57.3 fold and the “Relative Proliferation Fold Change 3F8 1:50” value amounted to 21.4 fold.
For the molecule B11, the “3F8 Ortho Proliferation Signal 1:2” value is 31200 cts/min, the “3F8 Ortho Proliferation Signal 1:10” value was determined as 24600 cts/min, the “3F8 Ortho Proliferation Signal 1:50” value was determined as 12200 cts/min and the “Relative Proliferation Fold Change 3F8 1:2” value is 179 fold. Moreover, the “Relative Proliferation Fold Change 3F8 1:10” value is 76.7 fold and the “Relative Proliferation Fold Change 3F8 1:50” value turned out to be 37.1 fold.
